In paper PMC6718413, “Improving mass spectrometry analysis of protein structures with arginine-selective chemical cross-linkers” (Nature Communications, 2019):

T1: Utp4 (UniProt Q06679 1-776)
T1 construct: Utp4, subunit of UtpA; S. cerevisiae is surmised from PDB 5WLC and the printed residue numbers; also called His6-tagged Utp4; Upt4; source: E. coli BL21(DE3), purified (HisTrap, heparin)
T1 sequence: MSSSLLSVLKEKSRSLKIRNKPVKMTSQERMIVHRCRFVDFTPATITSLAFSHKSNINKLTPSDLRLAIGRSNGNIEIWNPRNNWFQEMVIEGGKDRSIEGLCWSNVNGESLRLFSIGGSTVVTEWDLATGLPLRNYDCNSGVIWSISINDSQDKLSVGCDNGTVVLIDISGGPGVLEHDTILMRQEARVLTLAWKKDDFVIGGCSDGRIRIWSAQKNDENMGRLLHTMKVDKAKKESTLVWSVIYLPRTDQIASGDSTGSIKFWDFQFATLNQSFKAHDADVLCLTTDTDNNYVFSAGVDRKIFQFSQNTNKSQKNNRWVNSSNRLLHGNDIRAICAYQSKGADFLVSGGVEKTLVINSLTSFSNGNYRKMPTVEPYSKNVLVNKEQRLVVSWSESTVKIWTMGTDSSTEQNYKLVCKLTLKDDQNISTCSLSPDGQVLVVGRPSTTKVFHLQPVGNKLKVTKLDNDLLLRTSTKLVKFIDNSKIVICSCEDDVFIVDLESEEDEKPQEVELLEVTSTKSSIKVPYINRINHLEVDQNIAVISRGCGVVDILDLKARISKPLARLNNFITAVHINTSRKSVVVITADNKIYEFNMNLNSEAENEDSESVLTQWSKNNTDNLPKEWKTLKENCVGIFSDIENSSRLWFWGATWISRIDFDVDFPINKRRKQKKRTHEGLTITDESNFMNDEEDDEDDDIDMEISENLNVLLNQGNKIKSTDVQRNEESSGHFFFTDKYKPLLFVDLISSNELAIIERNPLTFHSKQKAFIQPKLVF


Assays:
Utp4 [1] = target: T1, Utp4; experiment: co-purification; purified Utp5–Utp15 CTD complex, Utp8–Utp9 CTD complex and His6-tagged Utp4 mixed; HisTrap and gel filtration; details: both partners purified
Utp4 [2] = target: T1, Utp4; experiment: cross-linking; UtpA sub-complex (0.5 μg/μL) with 0.5 mM BS^3 at RT for 45 min, quenched with 20 mM NH4HCO3; LC-MS/MS; details: both partners purified

Binder	binding result (Utp4 [1])	binding result (Utp4 [2])
Utp8–Utp9 CTD complex (complex, Utp9 residues 361-569, as m17; This complex was formed before it was mixed with His6-Utp4) chain 1: DYPKTLTFLLTHPLFPLSRTRNLLSLLRDQPRLFKQAIVTCPNLPLNELLEELFSIRNRELLLDISFRILQDFTRDSIKQEMKKLSKLDVQNFIEFITSGGEDSSPECFNPSQSTQLFQLLSLVLDSIGLFSLEGALLENLTLYIDKQVEIAERNTELWNLIDTKGFQHGFASSTFDNGTSQKRALPTYTMEYLDI chain 2: QPEVQHEKKETETKINKKVSKSDQVEIANILSSHLEANSTEILDDLMSGSWTEPEIKKFILTKINTVDHLSKIFLTISKSITQNPWNEENLLPLWLKWLLTLKSGELNSIKDKHTKKNCKHLKSALRSSEEILPVLLGIQGRLEMLRRQAKLREDLAQLSMQEGEDDEIEVIEHSNVISNPLQDQASPVEKLEPDSIVYANGESDEFVD	binds	
Utp5–Utp15 CTD complex (complex, Utp5 residues 433-591, as m14; Utp15 residues 380-513, as m15; This complex was formed before it was mixed with His6-Utp4) chain 1: TTGTVTVILSQALQSNDHSLLETVLNNRDERVIRDTIFRLKPALAVILLERLAERIARQTHRQGPLNVWVKWCLIIHGGYLVSIPNLMSTLSSLHSTLKRRSDLLPRLLALDARLDCTINKFKTLNYEAGDIHSSEPVVEEDEDDVEYNEELDDAGLIE chain 2: RSQRRMRAFERNINQFKWSEALDNAFVPGMAKELTLTVLQELRKRGKVRVALYGRDESTLEPLLNWCLKGIEDVRSASIVADWVAVVLELYGNTLESSPVLQELMIDLKTKVRHEIHKSKEAQRIEGMLQLLTS	binds	
CTD of Utp15 (residue 380-513) (domain or fragment, UniProt Q04305 380-513, looked up, Utp15, subunit of UtpA, residues 380-513; The tags were cleaved with Ulp1; also called Utp15 CTD) RSQRRMRAFERNINQFKWSEALDNAFVPGMAKELTLTVLQELRKRGKVRVALYGRDESTLEPLLNWCLKGIEDVRSASIVADWVAVVLELYGNTLESSPVLQELMIDLKTKVRHEIHKSKEAQRIEGMLQLLTS		binds
C-terminal domain (CTD) of Utp5 (residue 433-591) (domain or fragment, UniProt Q04177 433-591, looked up, Utp5, subunit of UtpA, residues 433-591; The tags were cleaved with Ulp1; also called Utp5 CTD) TTGTVTVILSQALQSNDHSLLETVLNNRDERVIRDTIFRLKPALAVILLERLAERIARQTHRQGPLNVWVKWCLIIHGGYLVSIPNLMSTLSSLHSTLKRRSDLLPRLLALDARLDCTINKFKTLNYEAGDIHSSEPVVEEDEDDVEYNEELDDAGLIE		binds
